Measured values reported in publication PMC12533970, “Highly accurate protein structure prediction-based virtual docking pipeline accelerating the identification of anti-schistosomal compounds”.

Experiments:
Assay in all cases: EMSA; EMSA: 0.5 pmol FAM-RNA (heated 70 C 5 min, cooled on ice) with 1 ug WT or 2 ug mutant protein in 10 uL Beyotime reaction buffer (composition, salt and pH not stated), 20 min at room temperature; competitor 200 pmol unlabeled RNA; 6% native PAGE in 1x TBE pH 8.3
Details in all cases: protein: recombinant; tags: His+SUMO, cleaved with ULP1; single strand
SmU2AF65 = SmU2AF65 (Schistosoma mansoni, UniProt C4Q2F6 1-521)
SmU2AF65 Mutant 2 = SmU2AF65 Mutant 2 (Schistosoma mansoni, UniProt C4Q2F6 1-521, L255A;R270E;Q284R;V289A)
SmU2AF65 Mutant 1 = SmU2AF65 Mutant 1 (Schistosoma mansoni, UniProt C4Q2F6 1-521, L255A;R270A;Q284A;V289A)

UACAUAAAUUAAUAAGUAUUUUUACUUUUUUUUAUUUUCAAUUUCAACAG (ssRNA) [50-nt intron 3' region consensus RNA]: binds (SmU2AF65); no binding (SmU2AF65 Mutant 2); binds (SmU2AF65 Mutant 1).
